Consider two molecules from patent US20210206842A1 (NATIONAL RESEARCH COUNCIL OF CANADA, published 2021).

Assay [1] concerns the target human Nav1.7 polypeptide (human, UniProt Q15858 1-1988). The assay can be described thus: cell-based or functional assay.
In assay [2] the target is T1, FC5DIE3IR recombinant protein.
T1 construct: Made in CHO-3E7 cells; also called FC5DIE31R; FC5DIE3R
The assay can be described thus: SPR, multiple cycle kinetics, VHH over immobilized FC5DIE3IR.

The target is the same in assay [3]. The assay can be described thus: SPR (Biacore T200), VHH flowed over immobilized FC5DIE3IR, steady state fit, 25 C. From the text: (§1) Surface Plasmon Resonance for VHH antibodies. […] Monomeric VHH fractions were collected and protein concentration determined by measuring A280 measurement. Using a Biacore T200 instrument (GE Healthcare), approximately 500-1000 RUs of FC5DIE3IR, FC5 and an irrelevant VHH (2A3-H4) were immobilized on a CM5 Series S sensor chip (GE Healthcare) at pH 4.0 using standard amine coupling according to the manufacturer's instructions (GE Healthcare). […] Surfaces were regenerated by washing with a 120 s pulse of 10 mM glycine pH 1.5. Data were analyzed with Biacore T200 Software v 3.0 and affinities determined using steady state binding or a 1:1 binding model.
(§2) Surface Plasmon Resonance (SPR).

For assay [4] the target is unchanged. The assay can be described thus: SPR steady-state plot (Req against Conc up to 5e-6), VHH DI-D over immobilized FC5DIE3IR.
Assay [5] deals with T2, VHH FC5.
T2 construct: put together from its FR and CDR entries; also called FC5-VHH; FC5 control
T2 sequence (VHH, as listed by the source): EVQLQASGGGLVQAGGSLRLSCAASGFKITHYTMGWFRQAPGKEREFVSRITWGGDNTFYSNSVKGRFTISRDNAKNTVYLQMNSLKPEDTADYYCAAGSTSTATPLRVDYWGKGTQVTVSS
The assay can be described thus: SPR, VHH flowed over immobilized FC5, 25 C.
Excerpt: as §1, §2
For orientation: SPR reads the build-up and loss of mass on a sensor chip optically.

Assay [6] deals with T1, FC5DIE3IR recombinant protein. As to the kind of experiment: SPR (Biacore T200), VHH flowed over immobilized FC5DIE3IR, steady-state fit, 25 C.
Excerpt: as §1, §2

B1: VHH DI-D (VHH)
VHH: QVKLEESGGGLVQPGGSLKLSCVASGFAFSSAPMDWVRKAPGKDVEWLSTIESDQDHTIYYANSVKGRFTISRDDVQNILYLQMNDLKIEDTATYYCQKRGEKKTRGQGTQVTVSS
notes: From the naive LAC-M library; soluble tagged monomer in protein ELISA, SPR and patch clamp; also called phage D; clone D; not shown: 6xHis and c-Myc tags on the soluble monomer
As usually defined, the Kd is the equilibrium constant for the complex coming apart. B1: the “concentration response relationship (IC50), hNav1.7 currents” value in assay [1] was 1480 nM. For the same molecule, the values for the Kd in assay [2], in assay [3] and in assay [4] were 2000 nM, 1930 nM and 2040 nM, respectively.

B2: VHH DI-48 (VHH)
VHH: QVQLVESGGGLVQAGGSLRLSCAASGRTFSTYVMGWFRQTPGKEREFVAGFSWSGDYAIYVNSVKGRFTISRDNAKNTVYLQMNSLRPEDTAVYYCAARQRGGYSGRSYYTGRNDYEYWGQGTQVTVSS
notes: From the FC5DIE3IR llama immune library; soluble tagged monomer in SPR; not shown: cmyc and His6 tags at the C-terminus
As to B2, in assay [5], the binding result was “no binding (tested: 312 nM-5000 nM)”. The Kd in assay [6] was 8400 nM.
